Tests used:
Test in all cases: cell-based or functional assay
[1] = target: HIV-1 Env of pseudovirus 6545.V4.C1 (clade AC) (HIV-1)
[2] = target: HIV-1 Env of pseudovirus 231965.c01 (clade D) (HIV-1)
[3] = target: HIV-1 Env of pseudovirus Q259.17 (clade A) (HIV-1)
[4] = target: HIV-1 Env of pseudovirus MS208.A1 (clade A) (HIV-1)
[5] = target: HIV-1 Env of pseudovirus 3016.v5.c45 (clade D) (HIV-1)
[6] = target: HIV-1 Env of pseudovirus CAP45.G3 (clade C) (HIV-1)
[7] = target: HIV-1 Env of pseudovirus X1632.S2.B10 (clade G) (HIV-1)
[8] = target: HIV-1 Env of pseudovirus BJOX009000.02.4 (clade AE) (HIV-1)
[9] = target: HIV-1 Env of pseudovirus TRO.11-N332A (clade B) (HIV-1)
[10] = target: HIV-1 Env of pseudovirus CNE8 (clade AE) (HIV-1)
[11] = target: HIV-1 Env of pseudovirus BJOX010000.06.2 (clade AE (T/F)) (HIV-1)
[12] = target: HIV-1 Env of pseudovirus QH0692.42-N332A (clade B) (HIV-1)
[13] = target: HIV-1 Env of pseudovirus T257-31 (clade AG) (HIV-1)

Row | Binder | Pseudovirus neutralization IC80 (TZM-bl luciferase) [1] | Pseudovirus neutralization IC80 (TZM-bl luciferase) [2] | Pseudovirus neutralization IC80 (TZM-bl luciferase) [3] | Pseudovirus neutralization IC80 (TZM-bl luciferase) [4] | Pseudovirus neutralization IC80 (TZM-bl luciferase) [5] | Pseudovirus neutralization IC80 (TZM-bl luciferase) [6] | Pseudovirus neutralization IC80 (TZM-bl luciferase) [7] | Pseudovirus neutralization IC80 (TZM-bl luciferase) [8] | Pseudovirus neutralization IC80 (TZM-bl luciferase) [9] | Pseudovirus neutralization IC80 (TZM-bl luciferase) [10] | Pseudovirus neutralization IC80 (TZM-bl luciferase) [11] | Pseudovirus neutralization IC80 (TZM-bl luciferase) [12] | Pseudovirus neutralization IC80 (TZM-bl luciferase) [13]
1 | BiS13 (bispecific antibody) heavy: not shown light: ALTQPRSVSASPGQSVTISCTGTHNLVSWCQHQPGRAPKLLIYDFNKRPSGVPDRFSGSGSGGTASLTITGLQDDDDAEYFCWAYEAFGGGTKLTVLGQGGGGSGGGGSGGGGSADLVQSGAVVKKPGDSVRISCEAQGYRFPDYIIHWIRRAPGQGPEWMGWMNPMGGQVNIPWKFQGRVSMTRDTSIETAFLDLRGLKSDDTAVYYCVRDRSNGSGKRFESSNWFLDLWGRGTAVTIQSGGGGSGGGGSGGGGSGGGGSGGGGSDISVAPGETVRITCGGESIGSRAVQWYQHRPGQAPRLIIYNNQDRPPGIPERFSGSPDIDFGTTATLTISNVEAGDEATYYCHIWDSRRPTNWELGPGTTLTVLGQPKAAPSVTLFPPSSEELQANKATLVCLISDFYPGAVTVAWKADSSPVKAGVETTTPSKQSNNKYAASSYLSLTPEQWKSHKSYSCQVTHEGSTVEKTVAPTECS | < 0.0001 µg/mL | 0.0157 µg/mL | 0.0114 µg/mL | 0.0998 µg/mL | 0.0156 µg/mL | 0.0021 µg/mL | 0.06 µg/mL | 0.0096 µg/mL | 0.0054 µg/mL | 0.137 µg/mL | 0.172 µg/mL | 0.0311 µg/mL | 
2 | ePGT121 (antibody, V domains shown) VH: QMQLQESGPGLVKPGETLSLTCSVSGASISSSYWSWLRETPGKGLEWIGYTHHSGDTNYAPSLKSRVHLGLHPSKNQVSLSLTSVTAADTAVYYCARTLHGRRIYGVVAFNEYYTYFYWPTWGKGTQVTVSS VL: SDISVAPGETVRITCGGESIGSRAVQWYQHRPGQAPRLIIYNNQDRPPGIPERFSGSPDIDFGTTATLTISNVEAGDEATYYCHIWDSRRPTNWELGPGTTLTVLG | > 50 µg/mL | > 50 µg/mL | > 50 µg/mL | > 50 µg/mL | > 50 µg/mL | 5.78 µg/mL | > 50 µg/mL | 0.0428 µg/mL | 1.35 µg/mL | > 50 µg/mL | > 50 µg/mL | > 50 µg/mL | > 50 µg/mL
3 | N49P7 (antibody, V domains shown) VH: ADLVQSGAVVKKPGDSVRISCEAQGYRFPDYIIHWIRRAPGQGPEWMGWMNPMGGQVNIPWKFQGRVSMTRDTSIETAFLDLRGLKSDDTAVYYCVRDRSNGSGKRFESSNWFLDLWGRGTAVTIQS VL: ALTQPRSVSASPGQSVTISCTGTHNLVSWCQHQPGRAPKLLIYDFNKRPSGVPDRFSGSGSGGTASLTITGLQDDDDAEYFCWAYEAFGGGTKLTVL | 1.76 µg/mL | 0.196 µg/mL | 0.163 µg/mL | 0.194 µg/mL | 0.516 µg/mL | 0.112 µg/mL | 0.27 µg/mL | 0.0999 µg/mL | 0.0622 µg/mL | 0.175 µg/mL | 0.453 µg/mL | 0.35 µg/mL | 0.577 µg/mL
